Measured values published in patent US20220119513A1 (ZOETIS SERVICES, published 2022).

T1: TGFβ2 (R&D Systems)
T1 sequence (P61812 303-414, species assumed, looked up): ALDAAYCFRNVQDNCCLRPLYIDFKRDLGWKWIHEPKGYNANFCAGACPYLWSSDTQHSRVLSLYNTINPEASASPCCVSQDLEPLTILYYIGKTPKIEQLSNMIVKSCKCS

T2: TGFβ3 (R&D Systems) (Homo sapiens (Human), UniProt P10600 301-412, Active TGFβ3 is a disulfide-linked homodimer of this chain; one copy is given.)
T2 sequence: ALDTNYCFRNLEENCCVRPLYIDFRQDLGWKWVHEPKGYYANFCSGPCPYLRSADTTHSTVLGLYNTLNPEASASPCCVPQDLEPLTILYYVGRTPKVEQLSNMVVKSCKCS


Tests used:
TGFβ1 (R&D Systems) [1] = test: cell-based or functional assay
TGFβ2 (R&D Systems) [2] = target: T1, TGFβ2 (R&D Systems); test: cell-based or functional assay
TGFβ3 (R&D Systems) [3] = target: T2, TGFβ3 (R&D Systems); test: cell-based or functional assay
TGFβ1 (R&D Systems) [4] = target: T3, TGFβ1 (R&D Systems); test: SPR full titration
T3 construct: also called TGFB1
T3 sequence (P01137 279-390): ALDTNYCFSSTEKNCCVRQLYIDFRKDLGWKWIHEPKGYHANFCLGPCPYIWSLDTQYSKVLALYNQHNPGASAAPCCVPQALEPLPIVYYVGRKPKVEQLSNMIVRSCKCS

TGFβ2 (R&D Systems) [5] = target: T1, TGFβ2 (R&D Systems); test: SPR full titration
TGFβ3 (R&D Systems) [6] = target: T2, TGFβ3 (R&D Systems); test: SPR full titration

| Binder | pSmad-3, IC50 (TGFβ1 (R&D Systems) [1]) [nM] | pSmad-3, IC50 (TGFβ2 (R&D Systems) [2]) [nM] | pSmad-3, IC50 (TGFβ3 (R&D Systems) [3]) [nM] | Kd (TGFβ1 (R&D Systems) [4]) [nM] | Kd (TGFβ2 (R&D Systems) [5]) [nM] | Kd (TGFβ3 (R&D Systems) [6]) [nM] |
| --- | --- | --- | --- | --- | --- | --- |
| affinity matured HcLb 27 (antibody, V domains shown) VH: EVQLVQSGAEVKKPGASVKVSCKTSGYTFITYWMNWVRQAPGAGLDWMGQIFPASGSTNYNEMFEGRVTLTADTSTSTAYMELSSLRAGDIAVYYCARGYGNYALDAMDYWGQGTLVTVSS VL: DIVMTQTPPSLSVSPRETASISCRASESVDSYGNSFMHWYLQKPGQSPQLLIYLASNLESGVSDRFSGSGSGTDFTLRISRVEANDTGVYYCQQNNEDPLTFGQ | 1.43 | 8.24 | 1.7 |  |  |  |
| affinity matured HcLb 268 (antibody, V domains shown, full IgG; constant regions not restated) VH: EVQLVQSGAEVKKPGASVKVSCKTSGYIFMKYWMNWVRQAPGAGLDWMGQIFPAWGMTNYNEMFEGRVTLTADTSTSTAYMELSSLRAGDIAVYYCARGYGNYALDAMDYWGQGTLVTVSS VL: DIVMTQTPPSLSVSPRETASISCRASESVDSYGNSFMHWYLQKPGQSPQLLIYLASNLESGVSDRFSGSGSGTDFTLRISRVEANDTGVYYCQQNNEDPLTFGQ |  |  |  | 5.34 | 3.96 | 1.03 |
| affinity matured HcLb 271 (antibody, V domains shown, full IgG; also called canHcLb/55SW/100DY/57SM/30IM/31TF + canHcLb/237ND/242TS) VH: EVQLVQSGAEVKKPGASVKVSCKTSGYTFMFYWMNWVRQAPGAGLDWMGQIFPAWGMTNYNEMFEGRVTLTADTSTSTAYMELSSLRAGDIAVYYCARGYGNYALDAMDYWGQGTLVTVSS VL: DIVMTQTPPSLSVSPRETASISCRASESVDSYGNSFMHWYLQKPGQSPQLLIYLASNLESGVSDRFSGSGSGTDFTLRISRVEANDTGVYYCQQNDEDPLSFGQGTK |  |  |  | 2.3 | 1.28 | 0.957 |
| affinity matured HcLb 264 (antibody, V domains shown, full IgG; also called canHcLb/55SW/100DY/30IM/31TK/28TI + canHcLb/237ND/242TS) VH: EVQLVQSGAEVKKPGASVKVSCKTSGYIFMKYWMNWVRQAPGAGLDWMGQIFPAWGSTNYNEMFEGRVTLTADTSTSTAYMELSSLRAGDIAVYYCARGYGNYALDAMDYWGQGTLVTVSS VL: DIVMTQTPPSLSVSPRETASISCRASESVDSYGNSFMHWYLQKPGQSPQLLIYLASNLESGVSDRFSGSGSGTDFTLRISRVEANDTGVYYCQQNDEDPLSFGQGTK |  |  |  | 2.69 | 3.89 | 3.75 |
| affinity matured HcLb 205 (antibody, V domains shown, full IgG; also called canHcLb/S55W/D100Y/T28/I + canHcLb/237ND/242TS) VH: EVQLVQSGAEVKKPGASVKVSCKTSGYIFITYWMNWVRQAPGAGLDWMGQIFPAWGSTNYNEMFEGRVTLTADTSTSTAYMELSSLRAGDIAVYYCARGYGNYALDAMDYWGQGTLVTVSS VL: DIVMTQTPPSLSVSPRETASISCRASESVDSYGNSFMHWYLQKPGQSPQLLIYLASNLESGVSDRFSGSGSGTDFTLRISRVEANDTGVYYCQQNDEDPLSFGQGTK |  |  |  | 1.78 | 2.09 | 0.005 |
| affinity matured HcLb 265 (antibody, V domains shown, full IgG; also called canHcLb/55SW/100DY/30IM/31TK/57SM + canHcLb/237ND/242TS) VH: EVQLVQSGAEVKKPGASVKVSCKTSGYTFMKYWMNWVRQAPGAGLDWMGQIFPAWGMTNYNEMFEGRVTLTADTSTSTAYMELSSLRAGDIAVYYCARGYGNYALDAMDYWGQGTLVTVSS VL: DIVMTQTPPSLSVSPRETASISCRASESVDSYGNSFMHWYLQKPGQSPQLLIYLASNLESGVSDRFSGSGSGTDFTLRISRVEANDTGVYYCQQNDEDPLSFGQGTK |  |  |  | 3.24 | 2.82 | 0.7 |
| affinity matured HcLb 272 (antibody, V domains shown, full IgG; also called canHcLb/55SW/100DY/57SM/30IM/31TF/28TK + canHcLb/237ND/242TS) VH: EVQLVQSGAEVKKPGASVKVSCKTSGYKFMFYWMNWVRQAPGAGLDWMGQIFPAWGMTNYNEMFEGRVTLTADTSTSTAYMELSSLRAGDIAVYYCARGYGNYALDAMDYWGQGTLVTVSS VL: DIVMTQTPPSLSVSPRETASISCRASESVDSYGNSFMHWYLQKPGQSPQLLIYLASNLESGVSDRFSGSGSGTDFTLRISRVEANDTGVYYCQQNDEDPLSFGQGTK |  |  |  | 2.39 | 2.02 | 0.895 |

Further binders by falling Kd (TGFβ1 (R&D Systems) [4]), results first:

| pSmad-3, IC50 (TGFβ1 (R&D Systems) [1]) [nM] | pSmad-3, IC50 (TGFβ2 (R&D Systems) [2]) [nM] | pSmad-3, IC50 (TGFβ3 (R&D Systems) [3]) [nM] | Kd (TGFβ1 (R&D Systems) [4]) [nM] | Kd (TGFβ2 (R&D Systems) [5]) [nM] | Kd (TGFβ3 (R&D Systems) [6]) [nM] | Binder |
| --- | --- | --- | --- | --- | --- | --- |
|  |  |  | 5.1 | 3.77 | 1.01 | affinity matured HcLb 267 (antibody, V domains shown, full IgG; constant regions not restated) VH: EVQLVQSGAEVKKPGASVKVSCKTSGYIFMKYWMNWVRQAPGAGLDWMGQIFPAWGSTNYNEMFEGRVTLTADTSTSTAYMELSSLRAGDIAVYYCARGYGNYALDAMDYWGQGTLVTVSS VL: DIVMTQTPPSLSVSPRETASISCRASESVDSYGNSFMHWYLQKPGQSPQLLIYLASNLESGVSDRFSGSGSGTDFTLRISRVEANDTGVYYCQQNNEDPLTFGQ |
|  |  |  | 2.4 | 2.9 | 0.453 | affinity matured HcLb 266 (antibody, V domains shown, full IgG; also called canHcLb/55SW/100DY/30IM/31TK/28TI/57SM + canHcLb/237ND/242TS) VH: EVQLVQSGAEVKKPGASVKVSCKTSGYIFMKYWMNWVRQAPGAGLDWMGQIFPAWGMTNYNEMFEGRVTLTADTSTSTAYMELSSLRAGDIAVYYCARGYGNYALDAMDYWGQGTLVTVSS VL: DIVMTQTPPSLSVSPRETASISCRASESVDSYGNSFMHWYLQKPGQSPQLLIYLASNLESGVSDRFSGSGSGTDFTLRISRVEANDTGVYYCQQNDEDPLSFGQGTK |
|  |  |  | 2.39 | 2.91 | 0.824 | affinity matured HcLb 275 (antibody, V domains shown, full IgG; also called canHcLb/55SW/100DY/57SM/30IW/31TF/28TK + canHcLb/237ND/242TS) VH: EVQLVQSGAEVKKPGASVKVSCKTSGYKFWFYWMNWVRQAPGAGLDWMGQIFPAWGMTNYNEMFEGRVTLTADTSTSTAYMELSSLRAGDIAVYYCARGYGNYALDAMDYWGQGTLVTVSS VL: DIVMTQTPPSLSVSPRETASISCRASESVDSYGNSFMHWYLQKPGQSPQLLIYLASNLESGVSDRFSGSGSGTDFTLRISRVEANDTGVYYCQQNDEDPLSFGQGTK |
